What was measured:
hVISTA-COMP-his [1] = molecular target: T1, hVISTA-COMP-his (Homo sapiens, UniProt Q9H7M9)
Target sequence in this assay (Q9H7M9 33-168): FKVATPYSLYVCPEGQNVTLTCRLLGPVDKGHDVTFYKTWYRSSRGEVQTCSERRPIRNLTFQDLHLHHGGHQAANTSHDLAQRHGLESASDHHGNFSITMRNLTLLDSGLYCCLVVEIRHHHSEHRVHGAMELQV

hVISTA-COMP-his [2] = molecular target: T1, hVISTA-COMP-his; experiment: SPR
Target sequence in this assay (Q9H7M9 whole entry, looked up, tested part not stated): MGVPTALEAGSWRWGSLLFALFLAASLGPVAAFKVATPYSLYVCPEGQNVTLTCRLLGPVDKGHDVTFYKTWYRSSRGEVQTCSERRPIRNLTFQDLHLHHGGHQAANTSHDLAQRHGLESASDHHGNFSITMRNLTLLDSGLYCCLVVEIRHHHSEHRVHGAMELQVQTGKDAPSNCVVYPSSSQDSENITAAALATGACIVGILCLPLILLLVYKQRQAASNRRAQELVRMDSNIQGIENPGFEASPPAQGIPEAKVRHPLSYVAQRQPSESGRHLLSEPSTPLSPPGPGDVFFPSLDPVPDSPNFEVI

mVISTA-COMP-his = mVISTA-COMP-his (Mus musculus, UniProt Q9D659); experiment: SPR
hVISTA-Fc = hVISTA-Fc (Homo sapiens (Human)., UniProt Q9H7M9); experiment: SPR
hVISTA-Fc, sequence (Q9H7M9 33-194): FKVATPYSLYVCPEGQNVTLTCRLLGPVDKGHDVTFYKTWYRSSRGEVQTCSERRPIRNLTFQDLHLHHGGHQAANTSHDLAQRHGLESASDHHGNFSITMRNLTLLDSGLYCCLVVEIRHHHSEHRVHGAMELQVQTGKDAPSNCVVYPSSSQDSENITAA

mVISTA-COMP-his, sequence (Q9D659 whole entry, looked up, tested part not stated): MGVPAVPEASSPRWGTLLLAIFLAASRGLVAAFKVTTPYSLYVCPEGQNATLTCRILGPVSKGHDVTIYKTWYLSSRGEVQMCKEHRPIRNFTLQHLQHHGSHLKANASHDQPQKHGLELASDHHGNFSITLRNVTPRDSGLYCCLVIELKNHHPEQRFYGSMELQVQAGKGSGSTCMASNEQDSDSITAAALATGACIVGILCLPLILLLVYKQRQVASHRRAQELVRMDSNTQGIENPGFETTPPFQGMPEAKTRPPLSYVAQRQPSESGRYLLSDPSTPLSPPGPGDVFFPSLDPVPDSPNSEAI

| Binder | binding result (hVISTA-COMP-his [1]) | Kd (hVISTA-COMP-his [2]) | also measured |
| --- | --- | --- | --- |
| Nb3 [hVISTANb3] (VHH) VHH: QVQLQESGGGLVHPGGSLRLSCAASGSVGTIFSMGWFRQAPGVQREMVATITNSGETNYAAFVKGRFTITRDNAQNTVYLQMNSLKPEDTAAYYCNAFDYVGGRTYELPYWGQGTQVTVSS | binds |  |  |
| Nb6 [hVISTANb6] (VHH) VHH: QVQLQESGGGLVHPGGSLRLSCAASGSGVTIFSMGWFRQAPGVQREMVATITNSGETNYAAFVKGRFTISRDNAQNAVYLQMNSLKPEDTAAYYCNAFDYVGGRTYELPYWGQGTQVTVSS | binds |  |  |
| Nb2 [hVISTANb2] (VHH) VHH: QVQLQESGGGLVHPGGSLRLSCAASGSVGTIFSMGWFRQAPGVQREMVATITNSGETNYAAFVKGRFTISRDNAENTMYLEMNDLKPEDTAAYYCNAFDYVGGRTYELPYWGQGTQVTVSS | binds |  |  |
| murine anti-hVISTA mAb 7E12 (antibody, V domains shown) VH: DVHLQESGPGLVKPSQSLSLTCSVTGYSITSGYYWNWIRQFPGNKLEWMGYISYDGNNNYNPSLKNRISITRDTSKNQFFLKLNSVTTEDTATYYCARGDYGSEAMDYWGQGTSVTVSS VL: DIRVTQSPASLAVSLGQRATISCRASKSVSTSGYSYMNWYQQKPGQPPQLLIYLASNLESGVPARFSGSGSGTDFTLNIHPVEEEDAAIYYCQHSRELPWTFGGGTKLEIK |  | 0.44 nM | binding result (mVISTA-COMP-his): no binding |
| rat anti-hmVISTA mAb 7C7 (antibody, V domains shown) VH: EVQLVESGGGLVQPGRSLKLSCVASGFTFNKYWMSWTRQAPGKGLEWVASITNSGGNTYYPDSVKGRFTISRDNAQNTLYLQMNSLRSEDTATYYCTLGVDYWGQGAMVTVSS VL: DVVMTQTPPSLSVTIGQSVSISCKSSQSLVYSDGKTYLHWLLQSSGRSPKRLIYQVSNLASGVPDRFSGTGSQKDFTLKISRVEAKDLGVYYCAQTTHFPYTFGAGTKLEMK |  | 49 nM | Kd (mVISTA-COMP-his): 51 nM |
| anti-hVISTA nanobody hVISTANb1 (VHH) VHH: QVQLQESGGGLVQPGGSLRLSCAASGSVGTIFSMGWFRQAPGVQREMVATITNSGETNYAAFVKGRFTISRDNAENTVYLQMNSLKPEDTAAYYCNAFDYVGGRTYELPYWGQGTQVTVSS |  |  | Kd (hVISTA-Fc): 11 nM |
| anti-hVISTA nanobody hVISTANb7 (VHH) VHH: QVQLQESGGGLVYPGGSLRLSCTASGFAFTNAYMNWVRQAPGKGAEWVSGITRDSNRTSYADSVKGRFTISRDNAKNTLYLQMDSLKSDDTALYYCNAEPSGWWLDDDYWGQGTQVTVSS |  |  | Kd (hVISTA-Fc): 7.5 nM |
| murine anti-hVISTA mAb 7G5 (antibody, V domains shown) VH: QIQLVQSGPELKKPGETVKISCKASGYTFTNYGMNWVKQAPEKGLKWMGWINTYTGEPTYADDFKGRFAFSLETSASTAYLQINNLKNEDTATYFCARRSNPWPNDYWGQGTSLTVSS VL: DIQMTQSPSSFSASLGERVSLTCRASQEISGYLSWLQQKPDGTIKRLIYAASTLDSGVPKRFSGSRSGSDYSLTISSLESEDFADYYCLQYASYPWTFGGGTKLEIK |  | 0.14 nM | binding result (mVISTA-COMP-his): no binding |
